Consider 2 molecules from paper PMC4393304, “Cloning and Characterization of Three Eimeria tenella Lipid Phosphate Phosphatases” (PLoS ONE, 2015).

One data set deals with T1, EtLPP1 (Eimeria tenella, UniProt A0A0A7H6F4).
T1 construct: full-length, 347 residues, calculated Mr 38239; His6-tagged (pcDNA3.1/His), transient in HEK293 cells, membrane fraction, Ni-NTA purified; bands 40 and 42 kDa, monomer
T1 sequence (A0A0A7H6F4 1-346): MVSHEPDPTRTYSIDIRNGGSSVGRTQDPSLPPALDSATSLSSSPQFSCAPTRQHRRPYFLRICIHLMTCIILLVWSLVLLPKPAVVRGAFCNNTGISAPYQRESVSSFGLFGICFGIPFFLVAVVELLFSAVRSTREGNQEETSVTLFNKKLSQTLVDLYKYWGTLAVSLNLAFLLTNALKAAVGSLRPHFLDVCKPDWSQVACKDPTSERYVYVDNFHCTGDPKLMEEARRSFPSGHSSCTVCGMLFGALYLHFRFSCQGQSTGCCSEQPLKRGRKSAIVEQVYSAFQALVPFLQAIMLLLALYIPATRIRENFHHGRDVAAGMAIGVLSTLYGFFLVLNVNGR
Nature of the data set: PiPer phosphate-release fluorescence assay. The data set is classed as biochemical. The following applies: pH 6.5, 37°C, Triton X-100 mixed micelles, 1 mg/ml fatty-acid free BSA, Mg2+-independent. From the text:
(§1) PiPer phosphate-release fluorescence assay on EtLPP1

Substrate in data set [1]: CCCCCCCCCCCCC/C=C/[C@@H](O)[C@@H](N)COP(=O)(O)O
Kind of data set: PiPer phosphate-release fluorescence assay. The class given is biochemical, Eimeria tenella. The following applies: pH 6.5, 37°C, Triton X-100 mixed micelles, 1 mg/ml fatty-acid free BSA, Mg2+-independent.
Excerpt: as §1

Consider LPA, for which the Michaelis-Menten constant (Km) (usually the concentration of substrate that gives half-maximal velocity) on EtLPP1 amounted to 46 ± 9 µM.

B1: EtLPP1 (Eimeria tenella) (protein)
chain: MVSHEPDPTRTYSIDIRNGGSSVGRTQDPSLPPALDSATSLSSSPQFSCAPTRQHRRPYFLRICIHLMTCIILLVWSLVLLPKPAVVRGAFCNNTGISAPYQRESVSSFGLFGICFGIPFFLVAVVELLFSAVRSTREGNQEETSVTLFNKKLSQTLVDLYKYWGTLAVSLNLAFLLTNALKAAVGSLRPHFLDVCKPDWSQVACKDPTSERYVYVDNFHCTGDPKLMEEARRSFPSGHSSCTVCGMLFGALYLHFRFSCQGQSTGCCSEQPLKRGRKSAIVEQVYSAFQALVPFLQAIMLLLALYIPATRIRENFHHGRDVAAGMAIGVLSTLYGFFLVLNVNGR
notes: full-length, 347 residues, calculated Mr 38239; His6-tagged (pcDNA3.1/His), transient in HEK293 cells, membrane fraction, Ni-NTA purified; bands 40 and 42 kDa, monomer
As to B1, in data set [1], the Km was 22 ± 6 µM and the Vmax (usually the rate approached at saturating substrate) stood at 0.00015 µmol/min/mg.
